Results from US20120316071A1 (published 2012).
Where a chain is given by its changes, count along the chain named. Names may count otherwise.

B1: Fab VH1-46_IGHD6-6*01_IGHJ1*01 S102A/S103P/S104F/H111F G55A & L6_IGKJ1*01 (Fab, V domains shown)
VH: QVQLVQSGAEVKKPGASVKVSCKASGYTFTSYYMHWVRQAPGQGLEWMGIINPSAGSTSYAQKFQGRVTMTRDTSTSTVYMELSSLRSEDTAVYYCAREEYAPFSAEYFQFWGQGTLVTVSS
VL: not shown
notes: Fab (CH1 with His6/Flag tags from Plasmid A, kappa CL from Plasmid C); also called APFF G55A
B2: Fab VH1-46_IGHD6-6*01_IGHJ1*01 S102A/S103P/S104F/H111F I51A & L6_IGKJ1*01 (Fab, V domains shown)
VH: B1 VH with I51A, A55G
VL: not shown
notes: Fab (CH1 with His6/Flag tags from Plasmid A, kappa CL from Plasmid C); also called APFF I51A
B3: Fab VH1-46_IGHD6-6*01_IGHJ1*01 S102A/S103P/S104F/H111F I50A & L6_IGKJ1*01 (Fab, V domains shown)
VH: B1 VH with I50A, A55G
VL: not shown
notes: Fab (CH1 with His6/Flag tags from Plasmid A, kappa CL from Plasmid C); also called APFF I50A
B4: Fab VH1-46_IGHD6-6*01_IGHJ1*01 S102A/S103P/S104F/H111F T58A & L6_IGKJ1*01 (Fab, V domains shown)
VH: B1 VH with A55G, T58A
VL: not shown
notes: Fab (CH1 with His6/Flag tags from Plasmid A, kappa CL from Plasmid C); also called APFF T58A
B5: Fab VH1-46_IGHD6-6*01_IGHJ1*01 S102A/S103P/S104F/H111F G56A & L6_IGKJ1*01 (Fab, V domains shown)
VH: B1 VH with A55G, G56A
VL: not shown
notes: Fab (CH1 with His6/Flag tags from Plasmid A, kappa CL from Plasmid C); also called APFF G56A
B6: Fab VH1-46_IGHD6-6*01_IGHJ1*01 S102A/S103P/S104F/H111F S57A & L6_IGKJ1*01 (Fab, V domains shown)
VH: B1 VH with A55G, S57A
VL: not shown
notes: Fab (CH1 with His6/Flag tags from Plasmid A, kappa CL from Plasmid C); also called APFF S57A
B7: Fab VH1-46_IGHD6-6*01_IGHJ1*01 S102A/S103P/S104F/H111F N52A & L6_IGKJ1*01 (Fab, V domains shown)
VH: B1 VH with N52A, A55G
VL: not shown
notes: Fab (CH1 with His6/Flag tags from Plasmid A, kappa CL from Plasmid C); also called APFF N52A
B8: Fab VH1-46_IGHD6-6*01_IGHJ1*01 S102A/S103P/S104F/H111F P53A & L6_IGKJ1*01 (Fab, V domains shown)
VH: B1 VH with P53A, A55G
VL: not shown
notes: Fab (CH1 with His6/Flag tags from Plasmid A, kappa CL from Plasmid C); also called APFF P53A
B9: Fab VH1-46_IGHD6-6*01_IGHJ1*01 S102A/S103P/S104F/H111F (APFF) & L6_IGKJ1*01 S28G (Fab, V domains shown)
VH: B1 VH with A55G
VL: EIVLTQSPATLSLSPGERATLSCRASQGVSSYLAWYQQKPGQAPRLLIYDASNRATGIPARFSGSGSGTDFTLTISSLEPEDFAVYYCQQRSNWPPWTFGQGTKVEIKR
notes: Fab made in E. coli; the variable domains were cloned into Plasmid A (CH1, His and Flag tags) and Plasmid C (kappa CL); also called APFF / S28G
B10: Fab VH1-46_IGHD6-6*01_IGHJ1*01 S102A/S103P/S104F/H111F (APFF) & L6_IGKJ1*01 S28A (Fab, V domains shown)
VH: B1 VH with A55G
VL: B9 VL with G28A
notes: Fab made in E. coli; the variable domains were cloned into Plasmid A (CH1, His and Flag tags) and Plasmid C (kappa CL); also called APFF / S28A
B11: Fab VH1-46_IGHD6-6*01_IGHJ1*01 S102A/S103P/S104F/H111F (APFF) & L6_IGKJ1*01 (Fab, V domains shown)
VH: B1 VH with A55G
VL: not shown
notes: Fab made in E. coli; the variable domains were cloned into Plasmid A (CH1, His and Flag tags) and Plasmid C (kappa CL); also called APFF / parent; H:APFF & L:wt
B12: Fab VH1-46_IGHD6-6*01_IGHJ1*01 S102A/S103P/S104F/H111F (APFF) & L6_IGKJ1*01 S28F (Fab, V domains shown)
VH: B1 VH with A55G
VL: B9 VL with G28F
notes: Fab made in E. coli; the variable domains were cloned into Plasmid A (CH1, His and Flag tags) and Plasmid C (kappa CL); also called APFF / S28F

biological target: T1, rHuman EGF R/Fc Chimera, CF (R&D Systems Cat#344-ER) (human, UniProt P00533 25-645); assay: ECL multispot (MSD) assay, antigen spotted on plate, 10 nM Fab;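 further: bound Fab detected with a TAG-labelled detection antibody (1 h, 20 °C), electrochemiluminescence read and compared with each well's blank, signal/blank of 4 or above scored as hit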
T1 construct: Bought recombinant Fc chimera; also called epidermal growth factor receptor; Fc part of the bought chimera not given

| Binder | ECL signal |
| --- | --- |
| B1 | 217 |
| B2 | 373 |
| B3 | 402 |
| B4 | 384 |
| B5 | 355 |
| B6 | 302 |
| B7 | 340 |
| B8 | 439 |

biological target: T2, Recombinant Human DLL4 (R&D Systems Cat#1506-D4/CF) (human, UniProt Q9NR61 27-524); assay: as above
T2 construct: Bought recombinant protein; also called delta-like protein 4; rHuman DLL4

| Binder | ECL signal |
| --- | --- |
| B1 | 14500 |
| B2 | 159000 |
| B3 | 2670 |
| B4 | 47400 |
| B5 | 189000 |
| B6 | 112000 |
| B7 | 169000 |
| B8 | 151000 |

biological target: T3, rHuman CD44/Fc Chimera, CF (R&D Systems Cat#3660-CD) (human, UniProt P16070 21-220); assay: as above
T3 construct: Bought recombinant Fc chimera; Fc part of the bought chimera not given

| Binder | ECL signal |
| --- | --- |
| B1 | 365 |
| B2 | 391 |
| B3 | 326 |
| B4 | 318 |
| B5 | 330 |
| B6 | 439 |
| B7 | 362 |
| B8 | 378 |

biological target: T4, rHuman ErbB2/Fc Chimera, CF (R&D Systems Cat#1129-ER) (human, UniProt P04626 23-652); assay: as above
T4 construct: Bought recombinant Fc chimera; also called human epidermal growth factor 2 receptor; Fc part of the bought chimera not given

| Binder | ECL signal |
| --- | --- |
| B1 | 474 |
| B2 | 344 |
| B3 | 369 |
| B4 | 320 |
| B5 | 279 |
| B6 | 304 |
| B7 | 378 |
| B8 | 203 |

biological target: T5, rHuman Notch-1/Fc Chimera, CF (R&D Systems Cat#3647-TK) (human, UniProt P46531 19-526); assay: as above
T5 construct: Bought recombinant Fc chimera; Fc part of the bought chimera not given

| Binder | ECL signal |
| --- | --- |
| B1 | 381 |
| B2 | 312 |
| B3 | 297 |
| B4 | 289 |
| B5 | 331 |
| B6 | 365 |
| B7 | 383 |
| B8 | 393 |

biological target: T6, rHuman P-Cadherin/Fc Chimera, CF (R&D Systems Cat#861-PC) (human, UniProt P22223 108-654); assay: as above
T6 construct: Bought recombinant Fc chimera; Fc part of the bought chimera not given

| Binder | ECL signal |
| --- | --- |
| B1 | 426 |
| B2 | 144 |
| B3 | 313 |
| B4 | 294 |
| B5 | 214 |
| B6 | 232 |
| B7 | 353 |
| B8 | 390 |

biological target: T7, rHuman IGF-1 sR, CF (R&D Systems Cat#391-GR) (human, UniProt P08069 31-932); assay: as above
T7 construct: Bought soluble receptor; also called insulin-like growth factor-1 soluble receptor

| Binder | ECL signal |
| --- | --- |
| B1 | 392 |
| B2 | 383 |
| B3 | 247 |
| B4 | 271 |
| B5 | 422 |
| B6 | 417 |
| B7 | 362 |
| B8 | 374 |

biological target: T8, rHuman HGF R/c-MET/Fc Chimera, CF (R&D Systems Cat#358-MT/CF) (human, UniProt P08581 25-932); assay: as above
T8 construct: Bought recombinant Fc chimera; also called HGF R/Fc; hepatocyte growth factor receptor; Fc part of the bought chimera not given
T8 sequence (P08581 25-932, change not shown): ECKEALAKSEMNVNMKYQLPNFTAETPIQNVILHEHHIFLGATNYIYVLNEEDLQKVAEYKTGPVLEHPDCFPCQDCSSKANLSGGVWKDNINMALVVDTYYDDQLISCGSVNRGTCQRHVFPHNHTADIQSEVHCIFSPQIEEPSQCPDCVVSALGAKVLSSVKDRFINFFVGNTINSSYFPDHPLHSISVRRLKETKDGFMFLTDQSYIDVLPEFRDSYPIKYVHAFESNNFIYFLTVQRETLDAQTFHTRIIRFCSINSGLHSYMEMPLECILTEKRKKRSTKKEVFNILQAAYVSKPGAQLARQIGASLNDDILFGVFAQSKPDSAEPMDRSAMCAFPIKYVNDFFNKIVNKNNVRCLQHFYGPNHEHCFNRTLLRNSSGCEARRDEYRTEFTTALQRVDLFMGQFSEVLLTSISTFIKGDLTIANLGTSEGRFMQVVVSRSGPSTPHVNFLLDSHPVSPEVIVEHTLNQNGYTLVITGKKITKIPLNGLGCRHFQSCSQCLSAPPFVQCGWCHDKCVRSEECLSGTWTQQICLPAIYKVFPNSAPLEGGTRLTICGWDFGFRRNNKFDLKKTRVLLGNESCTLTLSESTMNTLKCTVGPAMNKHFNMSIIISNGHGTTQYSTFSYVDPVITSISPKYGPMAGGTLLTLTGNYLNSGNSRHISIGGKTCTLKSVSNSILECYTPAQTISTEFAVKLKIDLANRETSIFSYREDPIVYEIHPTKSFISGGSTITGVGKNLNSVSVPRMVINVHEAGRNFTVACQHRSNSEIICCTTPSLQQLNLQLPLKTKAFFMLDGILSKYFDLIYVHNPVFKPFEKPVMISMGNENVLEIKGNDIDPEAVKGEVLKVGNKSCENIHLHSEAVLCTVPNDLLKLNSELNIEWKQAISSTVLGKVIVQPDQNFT

| Binder | ECL signal |
| --- | --- |
| B1 | 221 |
| B2 | 440 |
| B3 | 301 |
| B4 | 304 |
| B5 | 313 |
| B6 | 388 |
| B7 | 369 |
| B8 | 337 |

biological target: T9, rHuman Erythropoietin R/Fc Chimera, CF (R&D Systems Cat#963-ER) (human, UniProt P19235 25-250); assay: as above
T9 construct: Bought recombinant Fc chimera; also called EPO R; EPO R/Fc; Fc part of the bought chimera not given
T9 sequence (looked up): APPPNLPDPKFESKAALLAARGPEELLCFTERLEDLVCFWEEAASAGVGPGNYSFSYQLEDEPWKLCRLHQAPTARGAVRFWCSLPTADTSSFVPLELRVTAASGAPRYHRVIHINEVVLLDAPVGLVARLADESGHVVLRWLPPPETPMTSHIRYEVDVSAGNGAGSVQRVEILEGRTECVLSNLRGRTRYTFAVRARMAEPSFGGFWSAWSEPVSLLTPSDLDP

| Binder | ECL signal |
| --- | --- |
| B1 | 305 |
| B2 | 380 |
| B3 | 252 |
| B4 | 329 |
| B5 | 466 |
| B6 | 477 |
| B7 | 468 |
| B8 | 427 |

biological target: T10, rHuman EGF R/Fc Chimera, CF (human, UniProt P00533 25-645); assay: ECL Multispot (MSD) assay; antigen spotted on plate, Fab in solution;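 further: fab bound 1 h at 20 °C, detected by TAG-labelled antibody electrochemiluminescence, signal relative to each well's blank, ratio of 4 or more marks a hit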
T10 construct: Bought from R&D Systems; also called epidermal growth factor receptor; not shown: Fc of the bought chimera

| Binder | ECL signal |
| --- | --- |
| B9 | 360 |
| B10 | 351 |
| B11 | 406 |
| B12 | 283 |

biological target: T11, rHuman ErbB2/Fc Chimera, CF (human, UniProt P04626 23-652); assay: as above
T11 construct: Bought from R&D Systems; also called human epidermal growth factor 2 receptor; not shown: Fc of the bought chimera

| Binder | ECL signal |
| --- | --- |
| B9 | 334 |
| B10 | 348 |
| B11 | 333 |
| B12 | 242 |

biological target: T12, rHuman Erythropoietin R/Fc Chimera, CF (human, UniProt P19235 25-250); assay: as above
T12 construct: Bought from R&D Systems; also called EPO R; EPO R/Fc; not shown: Fc of the bought chimera
T12 sequence (looked up): T9 sequence (looked up)

| Binder | ECL signal |
| --- | --- |
| B9 | 494 |
| B10 | 424 |
| B12 | 413 |

biological target: T13, rHuman Notch-1/Fc Chimera, CF (human, UniProt P46531 19-526); assay: as above
T13 construct: Bought from R&D Systems; not shown: Fc of the bought chimera

| Binder | ECL signal |
| --- | --- |
| B9 | 324 |
| B10 | 440 |
| B12 | 367 |

biological target: T14, rHuman IGF-1 sR, (IGF-1 sR), CF (human, UniProt P08069 31-932); assay: as above
T14 construct: Bought from R&D Systems; also called insulin-like growth factor-1 soluble receptor

| Binder | ECL signal |
| --- | --- |
| B9 | 360 |
| B10 | 378 |
| B11 | 386 |
| B12 | 275 |

biological target: T15, Recombinant Human DLL4 (human, UniProt Q9NR61 27-524); assay: as above
T15 construct: Bought from R&D Systems; also called delta-like protein 4; rHuman DLL4

| Binder | ECL signal |
| --- | --- |
| B9 | 183000 |
| B10 | 157000 |
| B11 | 182000 |
| B12 | 134000 |

biological target: T16, rHuman HGF R/c-MET/Fc Chimera, CF (human, UniProt P08581 25-932); assay: as above
T16 construct: Bought from R&D Systems; also called HGF R/Fc; hepatocyte growth factor receptor; not shown: Fc of the bought chimera
T16 sequence (P08581 25-932, change not shown): as the sequence (P08581 25-932, change not shown) above

| Binder | ECL signal |
| --- | --- |
| B9 | 333 |
| B10 | 377 |
| B11 | 432 |
| B12 | 223 |

biological target: T17, rHuman CD44/Fc Chimera, CF (human, UniProt P16070 21-220); assay: as above
T17 construct: Bought from R&D Systems; not shown: Fc of the bought chimera

| Binder | ECL signal |
| --- | --- |
| B9 | 436 |
| B10 | 502 |
| B12 | 402 |

biological target: T18, rHuman P-Cadherin/Fc Chimera, CF (human, UniProt P22223 108-654); assay: as above
T18 construct: Bought from R&D Systems; not shown: Fc of the bought chimera

| Binder | ECL signal |
| --- | --- |
| B9 | 491 |
| B10 | 521 |
| B11 | 368 |
| B12 | 336 |
